Results from IntAct's records for PubMed 23559067.

B1: Retinal rod rhodopsin-sensitive cGMP 3',5'-cyclic phosphodiesterase subunit delta (Homo sapiens), O43924 (parent)
chain: MSAKDERAREILRGFKLNWMNLRDAETGKILWQGTEDLSVPGVEHEARVPKKILKCKAVSRELNFSSTEQMEKFRLEQKVYFKGQCLEEWFFEFGFVIPNSTNTWQSLIEAAPESQMMPASVLTGNVIIETKFFDDDLLVSTSRVRLFYV
partner: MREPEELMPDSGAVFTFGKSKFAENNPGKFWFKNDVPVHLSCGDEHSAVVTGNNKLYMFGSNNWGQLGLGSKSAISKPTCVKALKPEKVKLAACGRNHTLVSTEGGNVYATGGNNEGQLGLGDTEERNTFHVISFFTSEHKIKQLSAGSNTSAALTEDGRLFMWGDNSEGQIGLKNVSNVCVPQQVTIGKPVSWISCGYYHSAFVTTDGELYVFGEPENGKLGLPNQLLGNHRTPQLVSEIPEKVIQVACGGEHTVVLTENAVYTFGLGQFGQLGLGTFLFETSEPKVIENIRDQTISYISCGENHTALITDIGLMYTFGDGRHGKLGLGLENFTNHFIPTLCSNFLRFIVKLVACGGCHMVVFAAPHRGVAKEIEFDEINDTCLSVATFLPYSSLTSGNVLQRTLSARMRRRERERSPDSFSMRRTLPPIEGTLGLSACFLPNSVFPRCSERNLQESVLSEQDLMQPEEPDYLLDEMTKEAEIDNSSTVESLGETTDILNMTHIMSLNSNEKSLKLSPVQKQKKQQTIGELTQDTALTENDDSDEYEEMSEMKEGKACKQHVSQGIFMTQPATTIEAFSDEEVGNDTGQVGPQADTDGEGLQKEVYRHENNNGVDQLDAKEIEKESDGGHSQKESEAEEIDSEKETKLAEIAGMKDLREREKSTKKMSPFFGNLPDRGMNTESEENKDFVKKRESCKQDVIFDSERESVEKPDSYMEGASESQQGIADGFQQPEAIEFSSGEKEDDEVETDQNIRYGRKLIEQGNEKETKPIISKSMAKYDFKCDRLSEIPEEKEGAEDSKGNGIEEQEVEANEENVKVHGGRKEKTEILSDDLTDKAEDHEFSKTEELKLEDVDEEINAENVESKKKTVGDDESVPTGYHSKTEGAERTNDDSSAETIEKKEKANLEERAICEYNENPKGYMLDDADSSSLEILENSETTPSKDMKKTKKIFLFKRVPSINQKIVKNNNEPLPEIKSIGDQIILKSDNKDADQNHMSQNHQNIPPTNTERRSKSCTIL
B2: X-linked retinitis pigmentosa GTPase regulator (Homo sapiens), Q92834 (parent)
chain: B1 partner

Variants of: B1
Conditions: with rpgr_human RPGR, Q92834
In the case of R48E, the “effect of a mutation on the interaction” value is reported as “disrupting interaction”.

Variants of: B2
Conditions: with pde6d_human PDE6D, O43924
With E216R the “effect of a mutation on the interaction” value was “disrupting interaction”.
